In the DeepSol protein solubility set:

Assay: soluble on expression in E. coli; label from the status in PepcDB or PDB records

Row | Sequence | soluble on expression in E. coli
1 | MGSDKIHHHHHHMKVSVVILNWNGCDMLRTFLPSVIRYSKSEEVEVCVADNGSTDASVEMLREEFPCVRIIVLDQNHGFADGYNLALQQVEAEYVVLLNSDVEVTEHWLEPMISYLDGHPEVAACQPKIRSQRQKEYFEYAGAAGGFIDKYGYPFCRGRIMGVVEKDEGQYDTILPVFWATGAALFIRHADYREAGGLDGRFFAHMEEIDLCWRLRSRGREIVCIPQSTVYHVGGATLKKENPRKTFLNFRNNLVMLYKNLSDEELNKVMRIRTCLDYVAAFTFLLKGQLDNARAVMRARKEYKQICPSFSSSRKENLRKTSLNPIPERIKSSILWQFYVGGCKRFSQLSDLKG | not soluble
2 | MSLNESEEKNSNSTYSFFFKNLSVTGFYEENCLFMTVKELFDNSIDALCNNKGDENIDEEGQGTQEKKIEIEIKEYGINSSFYEIICRDNGEGIEVKDLEKISEMFLTSKEKCITSGKFGIGLKTILLYSFKTAYGFLHIKIKVKKNKIWDFILVLDKNLNHTFVQNFKEYIDDKWEWTIEISVILKINNNYISDKKIHSYIKLFLLWKKNITVKYIHNPNGEQSIYTYSSHSDTSEENILSMLANNSINMIFKKDFLTSYNYDVNMYVNVRKSEKIIPYEHGHNIGFLFLIRYVNSMPLLRTSSSDCSITVDFRNFLKYYGPQFGIELPTIESRDEMILEELALPSCFDDLNKVANIFPVKRSEKSTWNIMIIGIDVRGRDISFVSLRKNCIKEGEYLSSLIKKCSINLYNNIKRELPQEFENLSDYQLRQALNIYGVQLASSLSKIILKGHEEFKNKIFFLLNEKKKIKNNSTCEKEEYNNKFTSYDENILTRELYSHIKEKIMLNEKTYENPKAKIQLTGDSNKSYYKNEGHHHHHH | not soluble
3 | MSLDSQQKLAAQVTTPLTLSGDNQQAVAIFDQADPRIRIVYFGFTRCPDVCPTSLAMLSAALNQVDDKTKAQLRPMFISLDPERDDAKLAAQYAHYFHPMIEGLSGSVATTNQIAQKYGVIFRKTELPNSELKYTLDHSSYFYFLQPDGTLINKVPHTQDPTPIVDAIKKVIQEGHHHHHH | soluble
4 | MALKTAVHEKIMNDVVLAVKKNAEWKVLIVDQLSMRMVSACCKMHEIMSEGITLVEDINRRREPLPLLEAVYLITPTEESVKCLMADFQNPDNPQYRGAHIFFTEACPEELFKELCKSTTARFIKTLKEINIAFLPYESQIFSLDSPDTFQVYYNPSRAQGGIPNKERCAEQIATLCATLGEYPSVRYRSDFDENASFAQLVQQKLDAYRADDPTMGEGPQKDRSQLLILDRGFDPISPLLHELTFQAMAYDLLPIENDVYKYVNTGGNEVPEKEVLLDEKDDLWVEMRHQHIAVVSQNVTKKLKQFADEKRMGTAADKAGIKDLSQMLKKMPQYQKELSKYSTHLHLAEDCMKQYQQHVDKLCKVEQDLAMGTDADGEKIRDHMRNIVPILLDQKISAYDKIRIILLYIIHKGGISEENLAKLVQHAHIPAEEKWIINDMQNLGVPIIQDGGRRKIPQPYHTHNRKERQADHTYQMSRWTPYMKDIMEAAVEDKLDTRHYPFLNGGGPRPSCQQPVSVRYGHWHKDKGQASYKSGPRLIIFVVGGISYSEMRSAYEVTQTAKNNWEVILGSTHILTPEGLLRDLRKISNP | soluble
5 | MVMMSKQLTAQAPVDPIVLGKMGSSYGIRGWLRVFSSTEDAESIFDYQPWFIQKAGQWQQVQLESWKHHNQDMIIKLKGVDDRDAANLLTNCEIVVDSSQLPQLEEGDYYWKDLMGCQVVTTEGYDLGKVVDMMETGSNDVLVIKANLKDAFGIKERLVPFLDGQVIKKVDLTTRSIEVDWDPGFLEHHHHHH | soluble
6 | KMKNWIKTVCFLLWTCVMCTACIDDDVEEGTVDLQTGESIPVFSVVMDDGQIITSETLKGEVSLIVFFHTGCPDCRKELPVLQKIYTDYGRRIRMVCISREESSAEIVRYWDENHLTLPYSAQENRTVYYQFAKSGIPRVYVIDKELVIRSVFTDNPLASYEDLAEAITASL | not soluble
7 | MITVFHSDKLTRQPFFQDLINYLDQHDHVILREIKKAFPNVTGIDKAIESYVQAGYIRRENKRYGINLPLVSSDQQLALDTMLFVDTCSAMYENILAVVFETQLTNQTNRVMIKEKTNITRDDLTLANYFYRLKRGEKPSAEQMDLYDLLGDVNQEYALKYMTTFLLKFTRKDFVMQKRPDIFVEALVTLGYLKQVEPTTYQLLMTLDKESLTFIAP | not soluble
8 | MVHNFRNDITVDWCPGCGDFGILTALTSALSELNLGSHDVAIISGIGCSGKTPHYVNAAGAHTLHGRAIPVAVGVKLTNPHLKVIVTGGDGDLMSIGAGHLVAEGRRNSGITVLMYDNAVYGLTKGQAAPTLKLGVQTKSLARPNIYDAINPIMLAISSGYSFVARGFSFEIAHLKNIIKQAIMFPGSSFIDILQPCPTYNNINTMDWYKKRVYKLDDDKSWDPVITENDPKAEEKYNKAIEKSFEWGDKIPIGVFYVNKKVPPFTERLKQYVDNYEQIPPAVQDVSTEDGKPILDPFETFKDKI | not soluble
9 | MHALVQLRGEVNMHTDIQDTLEMLNIHHVNHCTLVPETDAYRGMVAKVNDFVAFGEPSQETLETVLATRAEPLEGDADVDDEWVAEHTDYDDISGLAFALLSEETTLREQGLSPTLRLHPPRGGHDGVKHPVKEGGQLGKHDTEGIDDLLEAMR | soluble
10 | MRKSLVALLLLAASGLAQAQVDLREGHPDRYTVVRGDTLWDISGKFLRQPWKWPELWHANPQIQNPHLIYPGDTLSLVYVDGQPRLVLNRGESRGTIKLSPKIRSTPIAEAIPTIPLDKINSFLLANRIVDDEKTFTSAPYIVAGNAERIVSGTGDRIYARGKFADGQPAYGIFRQGKVYIDPKTKEVLGINADDIGGGEVVATEGDVATLALTRTTQEVRLGDRLFPTEERAVNSTFMPGEPSREVKGEIIDVPRGVTQIGQFDVVTLNRGQRDGLAEGNVLAIYKVGETVRDRVTGESVKIPDERAGLLMVFRTYKKLSYALVLMASRPLSVTDRVQNP | not soluble
11 | MAHHHHHHMYSQRLSRVSPYLSNGSLSPRRFYEMLRRYATENLRDNFVQMQYREALLRLSRRDYWHWMGLRYGTLLFFPYGPRPEQTDNIPDWRHDEKIVQKWCAGLTGVPFADAAMRELLTTGFVAHEGRQALAWLLTRGYGQDWRLGAEWLERCSLDYDPFLCYGNFAYFSELILDDFGEPVRSVHWLAHHHDQTGIYVKKWLPLLSKIPPVYIHRPHVLTPRMQAMHGVRLGKTYPYPLKLWDGAQYMLGSDELTTYFDDSSAWHRKTKSGAGGPGHAEALRHGKAIMKVREWNAAILPEEVAQRPWAHHLPASAFESSEDEVETLQMRQRNQNQPTRHGQLSL | not soluble
12 | AISQDYNINMSGGNDKGTYYAGLGYNRQEGLPIKTFYERYSFVLNASYKITDWLTSSSNFNYNRANWKNMPGSQTSEGNYFGRIMSTPPTVRFQDEDGNPTLGPVAGDGNQNYQPDKWWNFNQSDKFTMVQAFQIDILKNLSVKGTANWYYSESLAESFTRDYENTPGQFVRTRSSSASFSRNFSQTYNVVLNYNQTFAKDHNVAVMLGMEYFDRYSRSFSASGSGAPTDDFADLSLTDNGEGKRSIDSGHSDYRILSYFGRLNYDYKGRYLLSAVFRQDGYSSLLGDNRWGFFPGVSAGWIFGQENFVKNALPFLSFGKLRASYGVNGNATGIGAYDLQGSYNSQKYNGNVGFLIGALPNPGLKWEKTRTAEVGIDMSFFENRLNANFTYYNRLTSDKYANLSLPSTTGFSSIKNNNGKFRNSGVEIELSGKILKTKDWSWDLGGNISFNKNKIVSLPDNGLIRNQQDAAQIYSGRQLSDGTYEKIWVGGNQEGYEPGVLIAYKADGLYRSWDEIPGDLVVTSGNYFGKKMYGPEAWKKLSSAEQKNALPIQPGDVKWRDINGDGMIDNYDQVVVGNTNPHWIGGFNTTLRWKNFQLYGRFDFAFDYWIYDNTTPWFLGCMQGTYNTTKDVFNTWSEENPNAKYPRFVYADQLMNANYYRTSTLFAYKGNYLAIREISLSYSLPKAWANKAYCQKVDVSITGQNLGYITSANVASPEVSSAGSGYALPRTLLFGLNVTF | not soluble
13 | MAVEEFNQNLNEIMKFKECNITVDTCVVIDGRITELISDGTIEKCTIIVPEAVISELEAQANKGREIGYFGIEELKKLVKVAKENEMVLEYYGERPSTGEVSLAKAGEIDAMIRKVAKDTNSILFTSDRIQYNLAIAQNINAHFLKVHEEKVDLKLV | not soluble
